According to the nanobody polyreactivity screen of Harvey et al. (2022):

Assay: yeast display, Sf9 membrane polyspecificity reagent, FACS + sequencing; frameworks hold sequencing errors
In short: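 Galactose-induced (36–48 hours) yeast carrying a synthetic nanobody display library were exposed to 10% biotinylated, detergent-solubilized Sf9 membrane reagent at 4 °C for 1 hour. FACS followed streptavidin microbead enrichment, using low and high (top ~1%) gates for expression (anti-HA) and reagent binding (streptavidin). Colony PCR, MiSeq 2 × 250 sequencing and CDR-length filtering followed. Labels for polyreactivity reflect the gate of origin.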

Row | Sequence | polyreactivity (PSR sort gate)
1 | QVQLVESGGGLDQAGGSLRLSCAASGSTFYYNTMGWYRQAPGKERELVAAISWRGVSTYYADSVKGRFTISRDNAKNTVYLQMNSLKPEDTAVYYCNAVHHYPEHIGGGYWGQGTQVTVSS | low polyreactivity
2 | QVQLVESGGGLVQAGGSLRLSCTASGIIFGTYAMGLYRQAPGKERELVAAISSSGVSTYYADSVKGRFTISRDNAKNTVYLQMNSLKPEDTAVYYCAAPLHYGYYYWGQGTQVTVSS | high polyreactivity
3 | QVQLVESGGGLVQAGCSLRLSSAASGSTFRANAMGWYRQAPGKERELVAAITSGGSTNYADSVKGRFTISRDNAKNTVYLQMNRRKPEDTAVYYCADESYQEHSFYVYYGYDYWGQGTQVTVSS | low polyreactivity
4 | QVQLVESGGGLVQAGGSLRLSCAASGRIFNRYTMGWYRPAPGKEREFVAAISSRGGSTYYADSVKGRFTISRDNAKNTVDLQMYSLIPEDTAVYYCNKDYYWPLYAPYDSWGQGTRVTVSS | high polyreactivity
5 | QVQLVESGGGLVQAGGSLRLSCAASGIIFTSYVMGWYRQAPGKERELVAAISSDGGSTYYADSVKGRFTISRDNAKNTVYLQMNSLKPEDTAVYYCAVDWLEIGDTGFDYWGQGTQVTVSS | low polyreactivity
6 | QVQLVESGGGLVQAGGSLRLSCASSGLTFRYNAMGWYRQAPGKERELVAAIRTSGGSTYYADSVKGRFTISRDNAKNTVYLQMNSLKPEDTAVYYCAARSKSYYGGYARGYWGQGTQVTVSS | high polyreactivity
7 | QVQLVESGGGLVQAGGSLRLSCAASGLTFYGYAMGWYRQAPGKERELVAAIRWSGGRTYYADSVKGRFTISRDNAKNTVYLQMNSLKPEDTAVYYCAADYRRYYGGDYWGQGTQVTVSS | low polyreactivity
8 | QVQLVESGGGLVQAGGSLRLSCAASGSTFDIYVMGWYRQAPGKEREFVAAITTTTGRTNYADSVKGRFTISRDNAKNTVYLQMNSLKPEDTAVYYCAAYVTWGKLWYGYWGQGTQVTVSS | high polyreactivity
9 | QVQLVESGGGLVQAGGSLRLSCAASGRTFTPNAMGWYRQAPGKDRELVAAITSTGGRTYYADSVKGRFTISRDNAKNTVYLQMNSLKPDDTAVYYCAVSYRYLRKYGYWGQGTQVTVSS | high polyreactivity
10 | QVQLVESGGGLDQARGSLRLSCAASGSTLALYTMGWNRQATGKETELVAAISKNGGRTYYADSVKGRFTISRDNAKNTVYLQMYSLKPEDTAVYYCAAASGSYRGYDFWGQGSQVTVSS | high polyreactivity
11 | QVQLVESGGGLVQAGGSLRLSCAASGRTFLNYAMGWYRQAPGKEREFVAAITWRVGTTYYADSVKGRFTISRDNAKNTVYLQMNSLKPEDTAVYYCAARRSVGGYGYWGQGTQVTVSS | high polyreactivity
12 | QVQLVESGGGLVQAGGSLRLSCAASGRIFGINSMGWYRQAPGKERELVAAITGGGSTYADSVKGRFTISRDNAKNTVYLQMNSLKPEDTAVYYCAAVSPRRYRYDYWGQGTQVTVSS | low polyreactivity
13 | QVQLVESGGGLVQAGGSLRLSCAASGRIFTGYTMGWYRQAPGKERELVAGITGSSGSTYYADSVKGRFTISRDNAKNTVYLQMNSLKPEDTAVYYCAAGRRYRSVGYGYWGQGTQVTVSS | high polyreactivity
14 | QVQLVESGGGLVQAGGSLRLSCAASGSTSTRNAMGWYRPAPGKERELVAAITSGGNTYYADSVKGRFTISRDNAKNTVYLQMNSLKPEDTAVYYCAAASPGPWRYDYWGQGTQVTVSS | high polyreactivity
15 | QVQLVESGGGLVQAGGSLRLICAASGRTFAGNAMGWYRQAPGKERELVAAITWSGGSTYYADSVKGRFTISRDNAKNTVYLQMNSLKPEDTAVYYCAADSQPPHELYESIEHESWGQGTQVTVSS | low polyreactivity
16 | QVQLVESAGGLVQAGGSLRLSCAASGRILFGYAMGWYRQAPGKERELVADITSTGSTNYADSVKGRFTISRDNAKNTVYLQMNSLKPEDTAVYYCNVDDTSWTTSGGRFGQVESDYWGQGTQVTVSS | low polyreactivity
17 | QVQLVESGGGLVQAGGSLRLSCAASGSIFSYYAMGWYRQAPGKERELVAAISLSTSGTHYADSVKGRFTISRDNAKNTVYLQMNSLKPEDTAVYYCAARQGYPVFLYNSRYGYWGQGTQVTVSS | low polyreactivity
18 | QVQLVESGGGLVQAGGSLRLSCAASGRTFGVNTMGWYRQAPGKERELVASISTSGGSTYADSVKGRFTISRDNAKNTVYLQMNSLKPEDTAVYYCAKDTDAVYDEYDSWGQGTQVTVSS | low polyreactivity
19 | QVQLVESGGGLDQAGGSLRLSCAASGSTLGYNAMGWYRQAPGKERVLVAAISRSGGITYYADSVKGRFTISRDTAKNTVYLQMNSLKPEDTAVYYCNAVDRTRYRPGNDYDYWGQGTQVTVSS | high polyreactivity
20 | QVQLVESGGGLVQAGGSLRLSCAASGSTFYSYAMGWYRQAPGKERELVADITDSGGSTYYADSVKGRFTISRDNAKNTVYLQMNSLKPEDTALFYCNAAYYIWYNKVSSTYGIHGMDYWGQGTQVTVSS | high polyreactivity
21 | QVQLVESGGGLVQAGGSLRLSCAASGFTFSYYAMGWYRQAPGKERELVATITSGGSTYYADSVKGRFTISRDNAKNTVYLQMNSLKPEDTAVYYCNADWYWRVYWGQGTQVTVSS | high polyreactivity
22 | QVQLVESGGGLVQAGGSLRLSCAASGLTFSHYAMGWYRQAPRKERELVAGISSRGGNTYYADSVKGRFTISRDNAKNTVYLQMNSLKPEDTAVYYCNAPKPKRAYDYWGQGTQVTVSS | high polyreactivity

Row | Sequence | polyreactivity (PSR sort gate)
23 | QVQLVESGGGLVQAGGSLRLSCAASGLIFYTNAMGWYRQAPGKERELVAAIDRASTNYADSVKGRFTISRDNAKNTVYLQMNSLKPEDTAVYYCAAGAGRSTFTVGYWGQGTQVTVSS | low polyreactivity
24 | QVQLVESGGGLVQAGGSLRLSCAASGRIFTYYAMGWYRQAPGKERELVAAITWSGTGTYYADSVKGRFTISRDNAKNTVYLQMNSLKPEDTAVYYCNRRHALASSYYYWGQGTQVTVSS | low polyreactivity
25 | QVQLVESGGGLVQARGSLRLSCAASGRTVTYYAMGWYRQAPGKERELVAAISSGDSTYYADSVKGRFTISRDNAKNTVYLQMNSLKPEDTAVYYCAVDHVSRYYGYPEITYDYWGQGTQVSVSS | low polyreactivity
26 | QVQLVESGGGLVQAGGSLSLSCAASGSIFRYYAMGWYRQAPGKERELVAAITSGGRTNYADSVKGRFTISRDNAKNTVYLQMNSLKREDTAVYYCNKCYNAVWRYRGDYWGQGTQVTVSS | high polyreactivity
27 | QVQLVESGGGLVQAGGSLRLSCAASGITFNGYVMGWYRQAPGKERELVAAITSGGSTNYADSVKGRFTISRDNAKNTVYLQMNSLKPEDTAVYYCAARYKAYWQLYDYWGQGTQVTVSS | high polyreactivity
28 | QVQLVESGGGLVQAGGSLRLSCAASGRTFYYYAMGWYRQAPGKERELVAAISWRGGSTYYADSVKGRFTISRDNAKNTVYLQMNSLKPEDTAVYYCAVYTTYSRYRGYDYWGQGTQVTVSS | high polyreactivity
29 | QVQLVESGGGLVQAGGSLRLSCAASGSIFSQNAMGWYRQAPGKEREFVAAIRWSAGSTYYADSVKGRFTISRDNAKNTVYLQMNSLKPEDTAVYYCNAALNVSGHYPNDYWGQGTQVTVSS | low polyreactivity
30 | QVQLVESGGGLVHAGGSLRLSCAASGFTFSYYAMVWYREAPGKEREFVAAISRSGGSTYYADSVKGRFTISRDNAKNTVYLQMNSLYPVDTAVYYCATELSYRHGYWGQGTQVSVSS | high polyreactivity
31 | QVQLVESGGGLVQAGGSLRLSCAASGSIVYRYSMGWYRQAPGKERELVAGITFGAGTYYADSVKGRFTISRDNAKNTVYLQMNSLKPEDTAVYYCNAIHLPRHRDYWGQGTQVTVSS | low polyreactivity
32 | QVQLVESGGCLVQAGGSLRLSCAASGRTFVGYVMGWSRQAPGKERELVAAIRTGGRTHYADSVKGRFTISRDNAKNTVYLQMNSLKPEDTAVYYCNARASYSWHGIRGNYDYWGQGTQVTVSS | high polyreactivity
33 | QVQLQESGGGLVQVGGSQRLSCAASGNIFYNYAMGWYRHAHGKEREFDATINHGTSINYADSVKGRFTISRDNAKNTVYLQMNSLKPEDTAVYYCAADLSWTDNLFYWGQGTQVTVSS | low polyreactivity
34 | QVQLVESGGGLVQAGGSLRLSCAASGRTFGRNAMGWYRQAPGERELVAVISRGGSTYYADSVKGRFTISRDNAKNTVYLQMNSLKPEDTAVYYCNADTVYTRNATYDYWGQCTQVTVSS | low polyreactivity
35 | QVQLVESGGGLVQAGGSLRLSCAASRRTFWNYAMGWYRQAPGKESEFVAVIRFSDGSTYYADSVKGRFTISRDNAKTTVYLQMHSLKPEDTPVYYCAAKGPRRWGSGFDYWGQRTQVTVSS | low polyreactivity
36 | QVQLVESVGGLVQAGGSLRLSCAASGSIIFTNVMGWYRQAPGKDREFVAAITGGGGSTYYADSVKGRFTISRDNAKNTVYLQMNSLKPEDTAVYYCATKAKPRSGYNYWGQGTQVTVSS | low polyreactivity
37 | QVQLEESGGGLVQAGGSLRLSCAASGSIFVGYAMGWYRQAPGKEREFVAAINYRGGSTFYADSVKGRFTISRDNAKNTVYLQMNSLKPEDTAVYYCAARYSGNRGVPKGYRYNYWGQGTQVTVSS | low polyreactivity
38 | QVQLVESGVGLVQAAGSLRLSCAASGSTFSSYAMGWYRQAPGKERELVAVISSRGSRTYYADSVKGRFTNSRDNAKNSVYLLMNSLKPEDTAVYYCAARAVKQYGNSYESWGQGTQVTVSS | high polyreactivity
39 | QVQLVESGGGLVQAGGSLRLSCAASGTFSQYAMGWYRQAPGKERELVAAISQGGGSTYYADSVKGRFTISRDNAKNTVYLQMNSLKPEDTAVYYCARSRSYWGIVYGRYDYWGQGTQVTVSS | high polyreactivity
40 | QVQLVESGGGLVQAGGSLRISCAASGFSFRYYAMGWYRQAPGKERELVAAISGSGGSTYYADSVKGRFTISRDNAKNTVYLQMNSLKPEDTAVYYCARYYTYREYDYWGQATQVTVSS | high polyreactivity
41 | QVQLVESGGGLVQVGGSLRLSCAASGITFSYYSMGWYRPAPGKERELVAAISQRGGSTYYADSVKGRFTISRDNAKNTVYLQMNSLKPEDTAVYYCAAAYRGANYGYGFDYWGQGTQVTVSS | high polyreactivity
42 | QVQLVESGGGLVQAGGSLRLSCAASGRIFRYYARGWYRQAPGKEMELVAAISGSGGSTYYADSVKGRFTISRDNAQKTVYLQIHCLKPEDTAVYSCNARYRIPSGEGDHWGQGTQVTVSS | low polyreactivity
43 | QVQLVESGGGLVQAGGSLRLSCAASGRTFRYYAMGWYRQAPGKERELFAAITSTGSTNYADSVKGRFTISRDNAKNTVYLQMNSLKPEDTAVYYCAARVNGKRRRYDYWGQGTQVTVSS | high polyreactivity
